Source: article doi:10.1101/2023.03.09.531510
Blank lines part the entries; values can stand above or below the substance they belong to.

How the values were obtained:
Assay in all cases: protein-fragment complementation
[1] = target: Smi1 (UniProt P32566)
[2] = target: Aim21 (UniProt P40563)
[3] = target: Bbc1 (UniProt P47068)
[4] = target: Srv2 (UniProt P17555)
[5] = target: Sbp1 (UniProt P10080)
[6] = target: Las17 (UniProt Q12446)
[7] = target: Arc18 (UniProt Q05933)
[8] = target: Tdh3 (UniProt P00359)
[9] = target: Pkh2
[10] = target: Osh2 (UniProt Q12451)
[11] = target: Rvs167 (UniProt P39743)
[12] = target: Pab1 (UniProt P04147)
[13] = target: Sfk1 (UniProt P35735)
[14] = target: Ygl242c (UniProt P53066)
[15] = target: Cdc10 (UniProt P25342)
[16] = target: Ysc84 (UniProt P32793)
[17] = target: Mid2 (UniProt P36027)
[18] = target: Tif4631 (UniProt P39935)
[19] = target: Hek2 (UniProt P38199)
[20] = target: Vrp1 (UniProt P37370)
[21] = target: Cmd1 (UniProt P06787)
[22] = target: Yor1 (UniProt P53049)
[23] = target: Ssz1 (UniProt P38788)
[24] = target: Sac6 (UniProt P32599)
[25] = target: Nap1 (UniProt P25293)
[26] = target: Bzz1 (UniProt P38822)
[27] = target: Arc40 (UniProt P38328)
[28] = target: Arc15 (UniProt P40518)
[29] = target: Ste20 (UniProt Q03497)
[30] = target: Syp1 (UniProt P25623)
[31] = target: Chc1 (UniProt P22137)
[32] = target: Ssb2 (UniProt P40150)
[33] = target: Cdc3 (UniProt P32457)
[34] = target: Lsb3 (UniProt P43603)
[35] = target: Hsp104 (UniProt P31539)
[36] = target: Arc19 (UniProt P33204)
[37] = target: Ssa1 (UniProt P10591)
[38] = target: Sla1 (UniProt P32790)
[39] = target: Sla2 (UniProt P33338)
[40] = target: Pan1 (UniProt P32521)
[41] = target: Bmh1 (UniProt P29311)
[42] = target: Ssb1 (UniProt P11484)
[43] = target: Abp1 (UniProt P15891)
[44] = target: Myo5 (UniProt Q04439)
[45] = target: Pfk1 (UniProt P16861)

Chain of UniProt P32793 (P32793 whole entry): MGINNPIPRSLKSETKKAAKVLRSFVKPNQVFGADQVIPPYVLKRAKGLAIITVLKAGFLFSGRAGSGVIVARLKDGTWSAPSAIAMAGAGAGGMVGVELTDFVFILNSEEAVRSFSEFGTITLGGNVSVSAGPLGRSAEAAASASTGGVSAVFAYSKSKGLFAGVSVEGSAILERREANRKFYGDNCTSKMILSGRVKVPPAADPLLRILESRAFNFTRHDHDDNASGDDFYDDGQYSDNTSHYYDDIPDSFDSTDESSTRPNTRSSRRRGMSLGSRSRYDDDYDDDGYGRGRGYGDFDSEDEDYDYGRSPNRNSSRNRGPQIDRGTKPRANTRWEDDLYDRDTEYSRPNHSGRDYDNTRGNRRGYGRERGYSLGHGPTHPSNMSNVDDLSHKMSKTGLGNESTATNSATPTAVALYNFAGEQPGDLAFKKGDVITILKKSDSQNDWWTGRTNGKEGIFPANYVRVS
Chain of UniProt P10080 (P10080 whole entry): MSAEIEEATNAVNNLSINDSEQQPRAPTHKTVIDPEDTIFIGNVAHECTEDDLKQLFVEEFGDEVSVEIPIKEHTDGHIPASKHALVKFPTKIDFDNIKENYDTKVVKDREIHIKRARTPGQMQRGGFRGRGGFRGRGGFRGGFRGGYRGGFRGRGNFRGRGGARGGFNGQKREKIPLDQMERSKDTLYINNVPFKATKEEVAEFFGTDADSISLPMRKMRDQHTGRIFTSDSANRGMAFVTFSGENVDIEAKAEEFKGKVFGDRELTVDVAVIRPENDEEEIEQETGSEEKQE
Chain of UniProt P15891 (P15891 whole entry): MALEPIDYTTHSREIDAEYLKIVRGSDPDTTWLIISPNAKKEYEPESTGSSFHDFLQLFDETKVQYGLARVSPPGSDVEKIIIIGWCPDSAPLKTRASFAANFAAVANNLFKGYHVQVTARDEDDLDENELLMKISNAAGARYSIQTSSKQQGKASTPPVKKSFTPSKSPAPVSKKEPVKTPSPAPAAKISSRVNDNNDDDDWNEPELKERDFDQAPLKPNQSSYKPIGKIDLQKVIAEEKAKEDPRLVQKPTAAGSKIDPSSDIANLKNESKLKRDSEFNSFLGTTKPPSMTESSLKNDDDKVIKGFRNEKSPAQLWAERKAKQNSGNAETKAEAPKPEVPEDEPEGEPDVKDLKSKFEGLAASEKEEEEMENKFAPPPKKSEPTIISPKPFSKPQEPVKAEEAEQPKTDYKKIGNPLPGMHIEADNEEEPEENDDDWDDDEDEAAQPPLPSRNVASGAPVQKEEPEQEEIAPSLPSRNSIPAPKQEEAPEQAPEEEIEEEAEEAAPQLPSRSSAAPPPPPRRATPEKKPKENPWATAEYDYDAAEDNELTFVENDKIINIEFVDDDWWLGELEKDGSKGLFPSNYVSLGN
Chain of UniProt P40150 (P40150 whole entry): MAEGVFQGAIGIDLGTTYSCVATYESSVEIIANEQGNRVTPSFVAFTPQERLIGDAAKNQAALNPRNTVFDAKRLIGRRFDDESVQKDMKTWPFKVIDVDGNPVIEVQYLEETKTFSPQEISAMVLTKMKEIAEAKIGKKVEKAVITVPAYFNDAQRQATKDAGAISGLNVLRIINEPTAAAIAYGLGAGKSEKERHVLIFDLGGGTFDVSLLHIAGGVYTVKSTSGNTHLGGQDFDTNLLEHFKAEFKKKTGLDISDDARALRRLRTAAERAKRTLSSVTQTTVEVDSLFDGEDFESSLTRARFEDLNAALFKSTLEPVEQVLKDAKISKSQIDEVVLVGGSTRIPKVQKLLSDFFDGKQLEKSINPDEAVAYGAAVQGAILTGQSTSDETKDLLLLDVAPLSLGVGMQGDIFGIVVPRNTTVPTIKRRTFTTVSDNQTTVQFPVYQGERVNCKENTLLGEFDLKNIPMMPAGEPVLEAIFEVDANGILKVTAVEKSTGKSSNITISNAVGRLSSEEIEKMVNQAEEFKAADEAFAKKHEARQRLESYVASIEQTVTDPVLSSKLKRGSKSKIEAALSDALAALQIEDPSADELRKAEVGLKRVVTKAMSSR
Chain of UniProt P25293 (P25293 whole entry): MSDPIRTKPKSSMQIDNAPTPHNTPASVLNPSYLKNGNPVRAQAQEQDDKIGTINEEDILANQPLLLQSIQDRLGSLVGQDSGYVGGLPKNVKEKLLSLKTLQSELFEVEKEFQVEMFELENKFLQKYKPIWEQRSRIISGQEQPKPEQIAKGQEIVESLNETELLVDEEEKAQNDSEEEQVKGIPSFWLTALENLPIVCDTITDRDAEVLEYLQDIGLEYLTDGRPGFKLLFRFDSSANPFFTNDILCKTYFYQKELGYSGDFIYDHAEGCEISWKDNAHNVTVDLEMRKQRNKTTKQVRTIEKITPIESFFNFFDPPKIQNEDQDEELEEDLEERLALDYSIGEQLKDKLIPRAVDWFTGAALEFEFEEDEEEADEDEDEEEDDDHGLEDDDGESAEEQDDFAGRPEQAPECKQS
Chain of UniProt P17555 (P17555 whole entry): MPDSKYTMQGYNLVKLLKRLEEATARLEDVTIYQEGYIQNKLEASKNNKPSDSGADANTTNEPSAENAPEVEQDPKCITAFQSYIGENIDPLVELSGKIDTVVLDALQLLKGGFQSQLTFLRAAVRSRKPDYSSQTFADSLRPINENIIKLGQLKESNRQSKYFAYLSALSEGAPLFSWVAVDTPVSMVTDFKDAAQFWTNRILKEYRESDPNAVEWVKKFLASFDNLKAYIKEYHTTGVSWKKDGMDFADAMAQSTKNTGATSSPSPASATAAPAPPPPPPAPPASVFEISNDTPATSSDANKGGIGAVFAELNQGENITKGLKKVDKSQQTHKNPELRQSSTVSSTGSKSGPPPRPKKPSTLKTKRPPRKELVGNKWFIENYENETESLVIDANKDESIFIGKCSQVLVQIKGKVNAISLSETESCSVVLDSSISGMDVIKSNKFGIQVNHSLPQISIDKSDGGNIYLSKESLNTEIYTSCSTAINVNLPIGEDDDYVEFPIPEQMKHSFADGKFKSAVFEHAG
Chain of UniProt Q12451 (Q12451 whole entry): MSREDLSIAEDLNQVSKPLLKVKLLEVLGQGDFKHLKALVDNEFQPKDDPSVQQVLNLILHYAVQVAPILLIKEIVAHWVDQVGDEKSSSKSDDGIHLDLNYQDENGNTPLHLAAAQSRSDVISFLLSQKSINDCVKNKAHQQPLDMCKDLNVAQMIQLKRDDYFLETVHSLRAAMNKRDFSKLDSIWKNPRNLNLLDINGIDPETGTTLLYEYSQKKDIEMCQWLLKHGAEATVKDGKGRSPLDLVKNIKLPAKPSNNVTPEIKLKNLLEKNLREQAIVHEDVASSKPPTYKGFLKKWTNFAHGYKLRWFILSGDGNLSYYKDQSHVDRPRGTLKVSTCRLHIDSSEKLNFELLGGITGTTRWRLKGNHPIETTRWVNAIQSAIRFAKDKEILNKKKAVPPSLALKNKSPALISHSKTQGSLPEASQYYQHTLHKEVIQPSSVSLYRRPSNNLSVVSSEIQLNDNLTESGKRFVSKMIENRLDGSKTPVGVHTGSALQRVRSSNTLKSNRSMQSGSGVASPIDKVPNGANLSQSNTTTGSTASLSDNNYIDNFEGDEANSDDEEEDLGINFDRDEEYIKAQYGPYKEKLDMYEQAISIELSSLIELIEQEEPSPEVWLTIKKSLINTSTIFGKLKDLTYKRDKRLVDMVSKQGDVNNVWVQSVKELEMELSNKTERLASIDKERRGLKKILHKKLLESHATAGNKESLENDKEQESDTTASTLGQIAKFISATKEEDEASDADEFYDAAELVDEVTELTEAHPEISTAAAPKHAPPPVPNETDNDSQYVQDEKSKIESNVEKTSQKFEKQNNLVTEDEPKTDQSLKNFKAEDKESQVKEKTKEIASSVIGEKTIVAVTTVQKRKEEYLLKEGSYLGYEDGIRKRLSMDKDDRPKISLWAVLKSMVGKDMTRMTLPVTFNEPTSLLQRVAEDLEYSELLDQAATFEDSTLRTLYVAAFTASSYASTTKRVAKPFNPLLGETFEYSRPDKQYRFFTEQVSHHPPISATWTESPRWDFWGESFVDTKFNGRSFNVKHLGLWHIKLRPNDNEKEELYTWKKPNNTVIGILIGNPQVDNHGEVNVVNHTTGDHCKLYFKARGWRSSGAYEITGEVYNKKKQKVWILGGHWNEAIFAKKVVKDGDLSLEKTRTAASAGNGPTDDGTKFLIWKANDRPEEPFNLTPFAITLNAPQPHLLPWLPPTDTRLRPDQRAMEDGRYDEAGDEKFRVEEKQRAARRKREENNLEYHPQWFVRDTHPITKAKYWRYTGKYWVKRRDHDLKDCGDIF
Chain of UniProt P38788 (P38788 whole entry): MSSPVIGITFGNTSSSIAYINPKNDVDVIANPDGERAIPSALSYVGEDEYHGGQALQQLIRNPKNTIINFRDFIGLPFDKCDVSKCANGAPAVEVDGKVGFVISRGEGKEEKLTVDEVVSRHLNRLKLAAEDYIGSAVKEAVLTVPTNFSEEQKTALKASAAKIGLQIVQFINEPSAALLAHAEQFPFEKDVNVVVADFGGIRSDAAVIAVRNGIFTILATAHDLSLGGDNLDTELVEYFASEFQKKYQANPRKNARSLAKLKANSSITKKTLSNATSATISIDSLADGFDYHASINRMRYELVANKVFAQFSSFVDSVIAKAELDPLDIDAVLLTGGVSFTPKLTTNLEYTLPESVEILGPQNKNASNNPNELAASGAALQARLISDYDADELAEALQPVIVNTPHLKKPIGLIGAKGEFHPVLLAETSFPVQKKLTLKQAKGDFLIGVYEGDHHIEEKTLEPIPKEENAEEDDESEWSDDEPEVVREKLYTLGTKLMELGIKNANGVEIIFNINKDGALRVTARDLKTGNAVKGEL
Chain of UniProt P11484 (P11484 whole entry): as the sequence (P40150 whole entry) above, with Q49E, I413M, V435C, S436A counted along it
Chain of UniProt P40518 (P40518 whole entry): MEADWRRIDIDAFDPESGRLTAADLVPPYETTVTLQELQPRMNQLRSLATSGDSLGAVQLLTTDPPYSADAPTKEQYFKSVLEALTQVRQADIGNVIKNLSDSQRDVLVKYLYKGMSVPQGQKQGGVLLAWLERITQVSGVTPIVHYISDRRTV

Substance: Myo5 with SH3 AncA (from UniProt Q04439)
interaction score [1]: 0.53
interaction score [2]: 0.744
interaction score [3]: 0.722
interaction score [4]: 0.62
interaction score [5]: 0.792
interaction score [6]: 0.862
interaction score [7]: 0.844
interaction score [8]: 0.947
interaction score [9]: 0.128
interaction score [10]: 0.738
interaction score [11]: 0.525
interaction score [12]: 0.783
interaction score [13]: 0.711
interaction score [14]: 0.917
interaction score [15]: 0.39
interaction score [16]: 0.458
interaction score [17]: 0.848
interaction score [18]: 0.664
interaction score [19]: 0.391
interaction score [20]: 0.892
interaction score [21]: 0.216
interaction score [22]: 0.473
interaction score [23]: 0.807
interaction score [24]: 0.801
interaction score [25]: 0.489
interaction score [26]: 0.801
interaction score [27]: 0.937
interaction score [28]: 0.865
interaction score [29]: 0.447
interaction score [30]: 0.526
interaction score [31]: 0.583
interaction score [32]: 0.915
interaction score [33]: 0.481
interaction score [34]: 0.616
interaction score [35]: 0.755
interaction score [36]: 0.754
interaction score [37]: 0.885
interaction score [38]: 0.527
interaction score [39]: 0.633
interaction score [40]: 0.908
interaction score [41]: 0.791
interaction score [42]: 0.918
interaction score [43]: 0.89
interaction score [44]: 0.889

Substance: Myo5 with SH3 AncC (from UniProt Q04439)
interaction score [1]: 0.555
interaction score [2]: 0.727
interaction score [3]: 0.712
interaction score [4]: 0.579
interaction score [5]: 0.816
interaction score [6]: 0.843
interaction score [7]: 0.85
interaction score [8]: 0.949
interaction score [9]: 0.0849
interaction score [10]: 0.654
interaction score [11]: 0.404
interaction score [12]: 0.783
interaction score [13]: 0.685
interaction score [14]: 0.919
interaction score [15]: 0.334
interaction score [16]: 0.431
interaction score [17]: 0.846
interaction score [18]: 0.659
interaction score [19]: 0.421
interaction score [20]: 0.89
interaction score [21]: 0.412
interaction score [22]: 0.395
interaction score [23]: 0.81
interaction score [24]: 0.807
interaction score [25]: 0.469
interaction score [26]: 0.782
interaction score [27]: 0.946
interaction score [28]: 0.874
interaction score [29]: 0.33
interaction score [30]: 0.48
interaction score [31]: 0.578
interaction score [32]: 0.92
interaction score [33]: 0.438
interaction score [34]: 0.584
interaction score [35]: 0.76
interaction score [36]: 0.72
interaction score [37]: 0.883
interaction score [38]: 0.489
interaction score [39]: 0.575
interaction score [40]: 0.896
interaction score [41]: 0.806
interaction score [42]: 0.93
interaction score [43]: 0.887
interaction score [44]: 0.885

Substance: Myo5 with SH3 optMyo5 (from UniProt Q04439)
interaction score [1]: 0.568
interaction score [2]: 0.758
interaction score [3]: 0.758
interaction score [4]: 0.658
interaction score [5]: 0.834
interaction score [6]: 0.875
interaction score [8]: 0.97
interaction score [45]: 0.877
interaction score [9]: 0.124
interaction score [10]: 0.768
interaction score [11]: 0.539
interaction score [12]: 0.794
interaction score [13]: 0.723
interaction score [14]: 0.948
interaction score [15]: 0.423
interaction score [16]: 0.514
interaction score [17]: 0.866
interaction score [18]: 0.671
interaction score [19]: 0.412
interaction score [20]: 0.916
interaction score [21]: 0.319
interaction score [22]: 0.521
interaction score [23]: 0.841
interaction score [24]: 0.838
interaction score [25]: 0.509
interaction score [26]: 0.814
interaction score [27]: 0.968
interaction score [28]: 0.902
interaction score [29]: 0.446
interaction score [30]: 0.572
interaction score [31]: 0.603
interaction score [32]: 0.932
interaction score [33]: 0.493
interaction score [34]: 0.639
interaction score [35]: 0.762
interaction score [36]: 0.769
interaction score [37]: 0.908
interaction score [38]: 0.551
interaction score [39]: 0.65
interaction score [40]: 0.926
interaction score [41]: 0.831
interaction score [42]: 0.944
interaction score [43]: 0.903
interaction score [44]: 0.915

More lines, now with the values ahead:

interaction score [1]: 0.514
interaction score [2]: 0.715
interaction score [3]: 0.698
interaction score [4]: 0.591
interaction score [5]: 0.772
interaction score [6]: 0.823
interaction score [7]: 0.812
interaction score [45]: 0.807
interaction score [9]: 0.142
interaction score [10]: 0.703
interaction score [11]: 0.501
interaction score [12]: 0.756
interaction score [13]: 0.691
interaction score [14]: 0.881
interaction score [15]: 0.404
interaction score [16]: 0.455
interaction score [17]: 0.821
interaction score [18]: 0.621
interaction score [19]: 0.366
interaction score [20]: 0.862
interaction score [21]: 0.405
interaction score [22]: 0.467
interaction score [23]: 0.776
interaction score [24]: 0.775
interaction score [25]: 0.444
interaction score [26]: 0.767
interaction score [27]: 0.902
interaction score [28]: 0.837
interaction score [29]: 0.424
interaction score [30]: 0.513
interaction score [31]: 0.553
interaction score [32]: 0.881
interaction score [33]: 0.466
interaction score [34]: 0.595
interaction score [35]: 0.724
interaction score [36]: 0.724
interaction score [37]: 0.849
interaction score [38]: 0.51
interaction score [39]: 0.59
interaction score [40]: 0.876
interaction score [41]: 0.762
interaction score [42]: 0.889
interaction score [43]: 0.865
interaction score [44]: 0.869
Substance: Myo5 with SH3 AncA_3 (from UniProt Q04439)

interaction score [1]: 0.539
interaction score [2]: 0.753
interaction score [3]: 0.755
interaction score [4]: 0.637
interaction score [5]: 0.824
interaction score [6]: 0.877
interaction score [7]: 0.874
interaction score [8]: 0.972
interaction score [45]: 0.862
interaction score [9]: 0.168
interaction score [10]: 0.76
interaction score [11]: 0.519
interaction score [12]: 0.795
interaction score [13]: 0.714
interaction score [14]: 0.935
interaction score [15]: 0.33
interaction score [16]: 0.459
interaction score [17]: 0.858
interaction score [18]: 0.665
interaction score [19]: 0.387
interaction score [20]: 0.917
interaction score [21]: 0.196
interaction score [22]: 0.492
interaction score [23]: 0.838
interaction score [24]: 0.824
interaction score [25]: 0.479
interaction score [26]: 0.818
interaction score [27]: 0.967
interaction score [28]: 0.9
interaction score [29]: 0.417
interaction score [30]: 0.557
interaction score [31]: 0.594
interaction score [32]: 0.932
interaction score [33]: 0.472
interaction score [34]: 0.628
interaction score [35]: 0.767
interaction score [36]: 0.762
interaction score [38]: 0.535
interaction score [39]: 0.632
interaction score [40]: 0.925
interaction score [41]: 0.825
interaction score [42]: 0.934
interaction score [43]: 0.908
interaction score [44]: 0.903
Substance: Myo5 with SH3 swapMyo3 (from UniProt Q04439)
